The target in this test is fibrinogen (free fibrinogen in rat plasma) (rat) (UniProt P06399). The test can be described thus: cell-based or functional assay.

No end group written: not given here.

Turning to RTLAFVRFKKKAAVV-{K(lauroyl)-NH2} (also: self-assembled nanofiber) [RTL PA nanofiber (…(K)-C12 peptide amphiphile)], the free fibrinogen level in plasma after incubation ex vivo with RTL PA (80 µM) was below 36 mg/dL.

The values are drawn from US20180087039A1.
